From PMC13598245 (2026)
Like-named read-outs stand apart in the source and are kept apart here. Square brackets hold non-standard residues; d marks the D form. Ends that are not written are not given here. * marks the point of attachment. FITC = O=C1OC2(c3ccc(O)cc3Oc3cc(O)ccc32)c2ccc(NC(=S)*)cc21; pS = N[C@@H](COP(=O)(O)O)C(=O)O

T1: 14-3-3θ (purified, recombinant) (UniProt P27348 1-245)
T1 chain: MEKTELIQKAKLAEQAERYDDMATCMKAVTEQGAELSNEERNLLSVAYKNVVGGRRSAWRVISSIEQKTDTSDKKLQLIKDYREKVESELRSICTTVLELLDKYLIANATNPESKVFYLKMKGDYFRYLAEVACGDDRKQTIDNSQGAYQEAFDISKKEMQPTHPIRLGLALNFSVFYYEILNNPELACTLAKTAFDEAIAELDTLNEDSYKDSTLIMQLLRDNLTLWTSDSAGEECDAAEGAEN

T2: 14-3-3η (purified, recombinant) (UniProt Q04917 1-246)
T2 chain: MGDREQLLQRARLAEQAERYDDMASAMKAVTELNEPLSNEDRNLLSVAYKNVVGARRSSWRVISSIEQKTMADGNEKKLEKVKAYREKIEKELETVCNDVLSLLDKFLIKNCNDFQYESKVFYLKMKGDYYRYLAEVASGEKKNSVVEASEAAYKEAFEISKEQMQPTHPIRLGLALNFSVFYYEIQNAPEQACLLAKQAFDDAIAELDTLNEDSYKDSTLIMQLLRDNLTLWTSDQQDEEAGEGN


Assays:
Assay in all cases: FP
[1] = target: T1, 14-3-3θ (purified, recombinant)
[2] = target: T2, 14-3-3η (purified, recombinant)
[3] = target: T1, 14-3-3θ (purified, recombinant)
[4] = target: T2, 14-3-3η (purified, recombinant)

| Kd [1] [µM] | Kd [2] [µM] | Kd [3] [µM] | Kd [4] [µM] | Binder |
| --- | --- | --- | --- | --- |
| 23.7 | 12.3 | – | – | {FITC}-DGRRW[pS]LASLPSS [MAST1^85-97 p-S90] |
| 10.7 | 3.6 | – | – | {FITC}-RPRSR[pS]LSPGRSP [MAST1^156-168 p-S161] |
| – | – | 90.9 | 21 | {FITC}-RSRTP[pS]LPTPPTR [Tau^209-221 p-S214] |
